Data reported in US6677299B2, “Method to increase cerebral blood flow in amyloid angiopathy” (The Trustee of Columbia University in the city of New York, priority 2000, dated 2004).

Target: T1, RAGE (Mus musculus, UniProt Q62151)
T1 construct: The first set of studies employed synthetic Aβ infused in to wild-type mice; from tissue; host or cells: brain vasculature (blood-brain barrier) of living wild-type mice
Experiment: Brain perfusion model: Aβ binding to brain capillaries and transport across the BBB
Format: in vivo, mice
Description: FIGS. 1A-1F. […] FIG. 1A and bFIG.
Brain perfusion model. […] Details of the extracorporeal perfusion circuit were as reported elsewhere. ^22,23,38,39 At the start of the perfusion, the contralateral common carotid artery was ligated, and both jugular veins severed to allow free drainage of the perfusate. Brains were perfused with oxygenated perfusion medium at a flow rate of 1 ml/min by peristalitic pump. […] Perfusion pressure and animal's own arterial blood pressure were continuously monitored. Blood gasses pO2, pCO2 and pH and electrolytes in the arterial inflow and in animal's own blood were monitored.
Injection of radioisotopes for transport studies. […] When the effects of different unlabeled molecular reagents were tested, those were injected 5 min prior to tracers injection and than simultaneously with radiolabled ligands. At predetermined times within 10 min mice were sacrificed by decapitation, and brain tissue prepared for radioactivity analysis. TCA and HPLC analysis as we described were used to determine molecular forms of uptake of radiolabeled Aβ by the BBB.^22,23 Capillary-depletion technique was used to separate micravascular pellet from capillary-depleted brain to quantify in vivo binding to microvessels vs. transport into brain parenchyma, as we reported.^22, 23
Mathematical modeling for transport studies. […] The rate of entry (KIN) is computed from eq. 1: d[CIN (TEST-MOLEUCLE)−CIN (ALBUMIN)]/dt=KINCPL−KOUT[CIN (TEST-MOLECULE)−CIN (ALBUMIN)], where KOUT is exit or efflux transfer coefficient, and R is the steady state or equilibrium ratio. Eq. 1 is integrated to give [CIN (TEST-MOLECULE)−CIN (ALBUMIN)]/CPL=R (1−e^−KOUT T) (eq. 2). R is the steady state ratio, and the ratio KIN/KOUT at infinite time, and T is infusion time. Numerical values for KOUT may be obtained from the slope of the plot of ln (R−[CIN (TEST-MOLECULE)−CIN (ALBUMIN)]/CPL) (eq. 3) against T, using the equation KOUT=−ln(R−[CIN (TEST-MOLECULE)−CIN (ALBUMIN)]/CPL)/T (eq. 4). Finally, the value for KIN is derived by substituting the number for KOUT in: KIN=R KOUT (eq. 5). When tracer uptake remains linear over studied period of time, the exist constant approaches zero, and KIN=d[CIN (TEST-MOLEUCLE)−CIN (ALBUMIN)]/dt CPL. […] Advanced graphics software and the MLAB mathematical modeling system (as above) will be used to obtain graphic plots and compute transfer coefficients.

[1] = circulating 125I-labeled peptide, mice and guinea pigs
[2] = reagent in arterial inflow, 125I-Aβ 4 nM, 10 min

T1 sequence (Q62151 23-402): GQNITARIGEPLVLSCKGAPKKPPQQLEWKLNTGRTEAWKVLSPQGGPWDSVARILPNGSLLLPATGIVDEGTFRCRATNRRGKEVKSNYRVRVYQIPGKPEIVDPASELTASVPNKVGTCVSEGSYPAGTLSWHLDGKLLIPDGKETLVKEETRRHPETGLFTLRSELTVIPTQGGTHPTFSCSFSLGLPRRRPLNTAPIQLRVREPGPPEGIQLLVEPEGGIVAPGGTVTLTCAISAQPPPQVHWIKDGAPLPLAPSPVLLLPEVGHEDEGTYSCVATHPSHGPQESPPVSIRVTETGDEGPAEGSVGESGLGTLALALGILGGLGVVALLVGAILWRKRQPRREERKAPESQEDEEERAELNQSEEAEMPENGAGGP

effect on Aβ transport into brain (BBB transport of Aβ) [2] | effect on binding of Aβ to brain microvessels [2] | Substance | binding of the peptide to brain microvessels [1] | transport of the peptide across the BBB [1]
 |  | Aβ1-42: synthetic amyloid-β peptide 1-42, human form | absence of its significant binding | somewhat slower, but significant
did not affect | did not affect | fucoidan |  | 
